{"source": "IntAct's records for PubMed 9418902", "parents": {"B1": {"name": "Tumor necrosis factor receptor superfamily member 4 (Mus musculus), P47741 (parent)", "chain": "MYVWVQQPTALLLLALTLGVTARRLNCVKHTYPSGHKCCRECQPGHGMVSRCDHTRDTLCHPCETGFYNEAVNYDTCKQCTQCNHRSGSELKQNCTPTQDTVCRCRPGTQPRQDSGYKLGVDCVPCPPGHFSPGNNQACKPWTNCTLSGKQTRHPASDSLDAVCEDRSLLATLLWETQRPTFRPTTVQSTTVWPRTSELPSPPTLVTPEGPAFAVLLGLGLGLLAPLTVLLALYLLRKAWRLPNTPKPCWGNSFRTPIQEEHTDAHFTLAKI", "partner": "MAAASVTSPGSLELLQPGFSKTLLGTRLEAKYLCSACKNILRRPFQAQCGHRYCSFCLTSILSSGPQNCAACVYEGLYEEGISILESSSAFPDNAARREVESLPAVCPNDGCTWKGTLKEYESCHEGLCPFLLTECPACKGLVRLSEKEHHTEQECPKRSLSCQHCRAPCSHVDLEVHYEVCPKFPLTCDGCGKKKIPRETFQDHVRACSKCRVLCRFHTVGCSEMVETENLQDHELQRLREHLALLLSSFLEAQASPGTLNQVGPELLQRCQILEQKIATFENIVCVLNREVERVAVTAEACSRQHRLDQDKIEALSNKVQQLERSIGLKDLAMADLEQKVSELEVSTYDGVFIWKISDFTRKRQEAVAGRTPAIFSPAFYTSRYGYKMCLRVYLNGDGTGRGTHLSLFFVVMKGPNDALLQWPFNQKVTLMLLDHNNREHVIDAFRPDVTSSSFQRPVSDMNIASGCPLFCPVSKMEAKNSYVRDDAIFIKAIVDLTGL"}, "B2": {"name": "Tumor necrosis factor receptor superfamily member 4 (Mus musculus), P47741 (parent)", "chain": "B1 chain", "partner": "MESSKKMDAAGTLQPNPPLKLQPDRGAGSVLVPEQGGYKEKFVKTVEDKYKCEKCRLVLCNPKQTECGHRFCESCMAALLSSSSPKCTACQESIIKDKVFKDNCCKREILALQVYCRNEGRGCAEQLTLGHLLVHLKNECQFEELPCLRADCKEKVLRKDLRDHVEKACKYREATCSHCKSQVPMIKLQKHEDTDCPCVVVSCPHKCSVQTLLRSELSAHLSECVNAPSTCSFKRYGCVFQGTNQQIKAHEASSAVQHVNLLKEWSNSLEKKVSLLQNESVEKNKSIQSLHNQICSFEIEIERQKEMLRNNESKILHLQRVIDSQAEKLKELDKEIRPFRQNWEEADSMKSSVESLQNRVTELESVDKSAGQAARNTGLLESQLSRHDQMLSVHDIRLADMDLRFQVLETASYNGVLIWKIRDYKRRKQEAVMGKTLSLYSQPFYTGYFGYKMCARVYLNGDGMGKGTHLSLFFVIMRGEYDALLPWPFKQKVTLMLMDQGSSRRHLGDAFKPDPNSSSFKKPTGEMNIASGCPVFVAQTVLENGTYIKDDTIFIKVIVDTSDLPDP"}}}
{"variants_of": "B1", "conditions": "with traf2_mouse Traf2, P39429"}
{"variant": "Q259A;E260A;E261A", "effect of a mutation on the interaction": "disrupting interaction strength"}
{"variant": "T256A;P257A;I258A", "effect of a mutation on the interaction": "disrupting interaction strength"}
{"variant": "H262A;T263A;D264A", "effect of a mutation on the interaction": "decreasing interaction strength"}
{"variants_of": "B2", "conditions": "with traf3_mouse Traf3, Q60803"}
{"variant": "Q259A;E260A;E261A", "effect of a mutation on the interaction": "disrupting interaction strength"}
{"variant": "H262A;T263A;D264A", "effect of a mutation on the interaction": "decreasing interaction strength"}
{"variant": "T256A;P257A;I258A", "effect of a mutation on the interaction": "disrupting interaction strength"}
